Here are results for one molecule from patent publication US20090318535A1 (NEW YORK UNIVERSITY, published 2009).

In assay [1] the target is T1, human BimEL (Bcl-2-Interacting Mediator of cell death, Extra Long isoform) (human, UniProt O43521 1-198, phosphorylated in cells after PMA treatment (Ser69, Ser93, Ser94, Ser98 as the filing reports)).
T1 construct: 198 aa protein, GenBank AAC39593; also called HA-BimEL WT; wild-type BimEL
Put plainly: co-immunoprecipitation with FLAG resin from HEK293 cells expressing FLAG-tagged F-box proteins, immunoblot for BimEL. As to the method: For these binding studies, HEK293 cells were transfected with the indicated FLAG-tagged Fbw family F-box protein constructs (in FIG. 1). Twenty-four hours after transfection cells were treated for 3 hours with PMA (20 nM) and the proteasome inhibitor MG132 (10 μM) then harvested and lysed. Whole cell extracts (WCE) were subjected to immunoprecipitation using FLAG resin (α-FLAG), followed by immunoblotting with indicated antibodies (EV: empty vector).

The target of assay [2] is T2, HA-BimEL (S94/98A) mutant (human, UniProt O43521 1-198).
T2 construct: HA-tagged, expressed in HEK293
Put plainly: co-immunoprecipitation with HA resin from transfected HEK293 cells (FIG. 2A). The procedure: Twenty-four hours after transfection, cells were treated for 3 hours with PMA and MG 132. Whole cell extracts (WCE) were subjected to immunoprecipitation using HA resin (α-HA) followed by immunoblotting with indicated antibodies.

B1: human β-TrCP1 (beta-transducin repeat containing protein 1) (other)
chain: MDPAEAVLQEKALKFMCSMPRSLWLGCSSLADSMPSLRCLYNPGTGALTAFQNSSEREDCNNGEPPRKIIPEKNSLRQTYNSCARLCLNQETVCLASTAMKTENCVAKTKLANGTSSMIVPKQRKLSASYEKEKELCVKYFEQWSESDQVEFVEHLISQMCHYQHGHINSYLKPMLQRDFITALPARGLDHIAENILSYLDAKSLCAAELVCKEWYRVTSDGMLWKKLIERMVRTDSLWRGLAERRGWGQYLFKNKPPDGNAPPNSFYRALYPKIIQDIETIESNWRCGRHSLQRIHCRSETSKGVYCLQYDDQKIVSGLRDNTIKIWDKNTLECKRILTGHTGSVLCLQYDERVIITGSSDSTVRVWDVNTGEMLNTLIHHCEAVLHLRFNNGMMVTCSKDRSIAVWDMASPTDITLRRVLVGHRAAVNVVDFDDKYIVSASGDRTIKVWNTSTCEFVRTLNGHKRGIACLQYRDRLVVSGSSDNTIRLWDIECGACLRVLEGHEELVRCIRFDNKRIVSGAYDGKIKVWDLVAALDPRAPAGTLCLRTLVEHSGRVFRLQFDEFQIVSSSHDDTILIWDFLNDPAAQAEPPRSPSRTYTYISR
notes: also called Fbp1
For the molecule B1, the binding result is reported as “binds” in assay [1] and “no binding” in assay [2].
